Literature values, collected in paper PMC7140434.

Biological target: emerin (Homo sapiens) (UniProt P50402)
Chain of UniProt P50402 (P50402 whole entry): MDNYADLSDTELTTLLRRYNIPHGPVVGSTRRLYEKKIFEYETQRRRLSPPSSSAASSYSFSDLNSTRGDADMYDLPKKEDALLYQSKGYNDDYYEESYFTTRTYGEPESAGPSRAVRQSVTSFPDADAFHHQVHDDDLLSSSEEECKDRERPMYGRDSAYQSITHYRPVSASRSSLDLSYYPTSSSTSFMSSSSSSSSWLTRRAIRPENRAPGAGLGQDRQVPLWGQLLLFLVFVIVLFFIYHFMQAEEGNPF

Substance: HDAC3 (from UniProt O15379)
- Kd: 7.3 µM
